In this assay the target is FGF-receptor on dissociated neurons from embryonic rat hippocampus (rat). Put plainly: cell-based or functional assay.

B1: truncated version of the FG loop peptide, heptamer Ala 77-Lys 83 (peptide)
peptide: AENQQGK
On to B1, for which the “neurite outgrowth from hippocampal neurons, 50 µM peptide, relative to the entire FG loop peptide” value is about 50%.

B2: truncated version of the FG loop peptide, nonamer Val 76-Ser 84 (peptide)
peptide: VAENQQGKS
As for B2, the “neurite outgrowth from hippocampal neurons, 50 µM peptide, relative to the entire FG loop peptide” value was about 50%.

Values taken from US20090305951A1 (published 2009).
